Values quoted from earlier work, collected in PMC8864681.

Legend:
Asp67 = Asp67 (UniProt position 1513, LKPGVDYTITV)
Asp14 = Asp14 (UniProt position 40, ERQHMDSSTSA)
Asp28 = Asp28 (UniProt position 50, MTDDIDEVRWE)
Asp26 = Asp26 (UniProt position 26, KLVVVDFSATW)

Substance: Fibronectin, tenth type III cell adhesion module (FN10) (Homo sapiens)
- pKa (Asp67): 4.2

Substance: Ribonuclease A (pancreatic ribonuclease) (Bos taurus)
- pKa (Asp14): 2.0

Substance: T-cell surface antigen CD2 (cell adhesion molecule CD2) (Rattus rattus as printed ('black rat'); the PDB 1HNG source is commonly annotated as rat (Rattus norvegicus))
- pKa (Asp28): 3.57

Substance: Thioredoxin (recombinant human) (Homo sapiens)
- pKa (Asp26): 9.9
